± gives the standard error. Fewer inactive variants are shown than the library holds.
B1: glmS ribozyme (parent)
chain: AUAAAAGCGCCAGAACUACAGAAAUGUAGUUGACGAGGAGGAGGUUUAUCGAAUUUUCGGCGGAUGCCUCCAAA

Variants of: B1
Experiment: self-cleavage kobs at 640 uM GlcN6P; higher = faster cleavage; RNA array
Conditions: with glucosamine-6-phosphate
Method in brief: (§1)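 Tiles bearing barcoded ribozyme variants, transcribed in situ by E. coli RNA polymerase on sequenced MiSeq chips, were imaged over ~14 h at 37 °C using a hybridised Cy3 probe. Glucosamine-6-phosphate was supplied at 40 μM to 10 mM in HEPES/KCl/Mg(OAc)2 buffer. kobs came from one- or two-exponential decay fits to normalised per-tile medians, and weighted Michaelis–Menten fits then provided kcat and KM.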

Row | Variant | self-cleavage kobs at 640 uM GlcN6P
1 | G9C A64U G66C C70U C71U | < 1e-05 s⁻¹
2 | G9C U65C C68U | < 1e-05 s⁻¹
3 | A6U G7C G13U A36C | < 1e-05 s⁻¹
4 | C10G G13U G41U U49G | < 1e-05 s⁻¹
5 | C10U A12G G32A A42U | < 1e-05 s⁻¹
6 | C8G U57G C70U | < 1e-05 s⁻¹
7 | C10A C16U C67G | 0.000345 ± 0.00015 s⁻¹
8 | G7U U54A | < 1e-05 s⁻¹
9 | G9C C16G G38U U65A | < 1e-05 s⁻¹
10 | C10G A14G A36C G62U | < 1e-05 s⁻¹
11 | A6U G13A C71A | < 1e-05 s⁻¹
12 | C8U U47C C67G | < 1e-05 s⁻¹
13 | G9C A15G G38C G60A | < 1e-05 s⁻¹
14 | C10A A12C G66U | < 1e-05 s⁻¹
15 | G9U G60A G66U | < 1e-05 s⁻¹
16 | G9C A33U C34G U56A | < 1e-05 s⁻¹
17 | G7C A48C C70A | < 1e-05 s⁻¹
18 | C8U G13A U46A G51C G59A | < 1e-05 s⁻¹

Row | Variant | self-cleavage kobs at 640 uM GlcN6P
19 | C10G C11A C58G G63U C68A | 0.000138 ± 3.5e-05 s⁻¹
20 | G7A G37C A39U U47G | < 1e-05 s⁻¹
21 | G9U G40A C61G | < 1e-05 s⁻¹
22 | C10G A12U U46A | < 1e-05 s⁻¹
23 | G7U G13A G29U | < 1e-05 s⁻¹
24 | G7A A42C A52G U55A | < 1e-05 s⁻¹
25 | C8A A36U U45C U57A | < 1e-05 s⁻¹
26 | G7A C10U G29A U30G | < 1e-05 s⁻¹
27 | C10G A36C G60A | < 1e-05 s⁻¹
28 | C8G A15G G40U | < 1e-05 s⁻¹
29 | C8U G13U A14U | < 1e-05 s⁻¹
30 | G7A A53C C68U | < 1e-05 s⁻¹
31 | G7U G13U A15U C50A G51A G60U C67A C71A | 0.000375 ± 0.00012 s⁻¹
32 | G9U C11G G41U | < 1e-05 s⁻¹
33 | C8G A33C U55G G62U C67A | < 1e-05 s⁻¹
34 | C8A C11U G13A C71U | < 1e-05 s⁻¹
35 | G9U U31A | < 1e-05 s⁻¹

Variants of: B1
Experiment: self-cleavage kobs at 2500 uM GlcN6P; higher = faster cleavage; RNA array
Conditions: with glucosamine-6-phosphate
Method in brief: as §1

Row | Variant | self-cleavage kobs at 2500 uM GlcN6P
36 | C10U A12G G32A A42U | < 1e-05 s⁻¹
37 | C8G U57G C70U | < 1e-05 s⁻¹
38 | G7U U54A | < 1e-05 s⁻¹
39 | G9C C16G G38U U65A | < 1e-05 s⁻¹
40 | G9C A15G G38C G60A | < 1e-05 s⁻¹
41 | C10A A12C G66U | < 1e-05 s⁻¹
42 | C10G C11A C58G G63U C68A | 0.000117 ± 3.3e-05 s⁻¹
43 | G7U G13A G29U | < 1e-05 s⁻¹
44 | G7A A42C A52G U55A | < 1e-05 s⁻¹
45 | G7A A53C C68U | < 1e-05 s⁻¹
46 | C8G A33C U55G G62U C67A | < 1e-05 s⁻¹
47 | C8A C11U G13A C71U | < 1e-05 s⁻¹
48 | G9U U31A | < 1e-05 s⁻¹

Variants of: B1
Experiment: self-cleavage kobs at 10000 uM GlcN6P; higher = faster cleavage; RNA array
Conditions: with glucosamine-6-phosphate
Method in brief: as §1

Row | Variant | self-cleavage kobs at 10000 uM GlcN6P
49 | G7U U54A | < 1e-05 s⁻¹
50 | G7U G13A G29U | < 1e-05 s⁻¹
51 | G9U U31A | < 1e-05 s⁻¹
